{"source": "FireProtDB (doi:10.1002/cbic.201402128)", "proteins": {"B1": {"name": "Haloalkane dehalogenase wild type, D4Z2G1 (protein)", "chain": "MSLGAKPFGEKKFIEIKGRRMAYIDEGTGDPILFQHGNPTSSYLWRNIMPHCAGLGRLIACDLIGMGDSDKLDPSGPERYAYAEHRDYLDALWEALDLGDRVVLVVHDWGSALGFDWARRHRERVQGIAYMEAIAMPIEWADFPEQDRDLFQAFRSQAGEELVLQDNVFVEQVLPGLILRPLSEAEMAAYREPFLAAGEARRPTLSWPRQIPIAGTPADVVAIARDYAGWLSESPIPKLFINAEPGALTTGRMRDFCRTWPNQTEITVAGAHFIQEDSPDEIGAAIAAFVRRLRPA"}}, "settings": "Sphingobium indicum (strain DSM 16413 / CCM 7287 / MTCC 6362 / UT26 / NBRC 101211 / UT26S); pH 7.5; Thermal; fluorescence; Na-Hepes 50 mM; reversible: no; whole UniProt chain shown", "note": "Several values for one entry are separate records, joined by “and”; a condition that tells them apart may be missing. Equal values may be shown once.", "data": [{"protein": "B1", "values": [{"measurement": "Tm", "value": "51 °C and 49 °C"}]}]}
